Consider one molecule from PMC2597023 (Journal of cellular biochemistry, 2008).

This assay addresses full-length human IGFN1 with an N-terminal c-myc tag (human, UniProt Q86VF2-2 1-868). In words: co-IP.

B1: endogenous eEF1A1 of mouse C2C12 myoblasts (natural protein, mouse (endogenous in C2C12), UniProt P10126 1-462, looked up)
chain: MGKEKTHINIVVIGHVDSGKSTTTGHLIYKCGGIDKRTIEKFEKEAAEMGKGSFKYAWVLDKLKAERERGITIDISLWKFETSKYYVTIIDAPGHRDFIKNMITGTSQADCAVLIVAAGVGEFEAGISKNGQTREHALLAYTLGVKQLIVGVNKMDSTEPPYSQKRYEEIVKEVSTYIKKIGYNPDTVAFVPISGWNGDNMLEPSANMPWFKGWKVTRKDGSASGTTLLEALDCILPPTRPTDKPLRLPLQDVYKIGGIGTVPVGRVETGVLKPGMVVTFAPVNVTTEVKSVEMHHEALSEALPGDNVGFNVKNVSVKDVRRGNVAGDSKNDPPMEAAGFTAQVIILNHPGQISAGYAPVLDCHTAHIACKFAELKEKIDRRSGKKLEDGPKFLKSGDAAIVDMVPGKPMCVESFSDYPPLGRFAVRDMRQTVAVGVIKAVDKKAAGAGKVTKSAQKAQKAK
B1: the “fold of eEF1A1 immunoprecipitated against cells with the empty pCMV-myc vector” value is about 4 fold.
